Results published in patent US20160168250A1 (Genentech, published 2016).

Assays:
[1] = molecular target: T1, His-tagged IgD2-D3 of human FGFR3-IIIb (human, UniProt P22607-2 143-374, limits assumed); assay: BIAcore
T1 construct: domain: IgD2-D3; also called FGFR3-IIIb-His protein; Human FGFR3 ECD IIIb; not shown: His tag
T1 sequence (looked up): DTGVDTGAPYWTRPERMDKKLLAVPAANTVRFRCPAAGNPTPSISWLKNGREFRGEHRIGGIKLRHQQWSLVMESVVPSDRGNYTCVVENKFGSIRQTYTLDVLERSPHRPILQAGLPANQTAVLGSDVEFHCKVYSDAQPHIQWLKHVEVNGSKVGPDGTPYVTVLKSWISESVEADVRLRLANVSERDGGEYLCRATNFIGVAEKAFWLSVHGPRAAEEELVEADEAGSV

[2] = molecular target: T1, His-tagged IgD2-D3 of human FGFR3-IIIb; assay: BIAcore; R3Mab on CM5 chip, FGFR3-His injected
Description: For kinetic measurement, two-fold serial dilutions of FGFR3-IIIb or IIIc-His protein (starting from 67 nM) were injected in PBST buffer at 25° C. with a flow rate of 30 μl/minute. Association rates (Kon, per mol/s) and dissociation rates (Koff, per s) were calculated using a simple one-one Langmuir binding model (BIAcore Evaluation Software version 3.2). The equilibrium dissociation constant (Kd, per mol) was calculated as the ratio of Koff/Kon.

[3] = molecular target: T2, human FGFR3-IIIb ECD-human Fc chimeric protein (human, UniProt P22607-2 23-377); assay: ELISA: blocking of FGF1 binding to captured FGFR3-IIIb-Fc
T2 construct: extracellular domain; also called FGFR3-Fc chimeric protein (IIIb); not shown: human Fc
T2 sequence (looked up): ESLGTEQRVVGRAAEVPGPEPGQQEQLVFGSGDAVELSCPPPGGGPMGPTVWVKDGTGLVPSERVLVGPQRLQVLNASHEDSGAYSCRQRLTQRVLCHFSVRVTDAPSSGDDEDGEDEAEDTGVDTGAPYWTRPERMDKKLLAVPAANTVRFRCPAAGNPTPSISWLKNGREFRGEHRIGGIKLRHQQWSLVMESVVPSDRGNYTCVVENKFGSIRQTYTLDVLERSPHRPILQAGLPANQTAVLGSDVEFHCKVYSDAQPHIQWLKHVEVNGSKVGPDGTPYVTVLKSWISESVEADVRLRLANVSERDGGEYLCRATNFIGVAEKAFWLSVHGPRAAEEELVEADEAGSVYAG
Description: (§1) Specific binding was detected using an anti-human Fab antibody. […] Error bars represent standard error of the mean (SEM) and are sometimes smaller than symbols.
(§2) To test the effect of antibodies to FGFR3 on FGF/FGFR3 interaction, FGFR3-Fc chimeric proteins were captured on Maxisorp plate coated with anti-human immunoglobulin Fcγ fragment-specific antibody (Jackson Immunoresearch, West Grove, Pa.). After wash, increasing amount of FGFR3 antibody was added to the plate and incubated for 30 minutes.

[4] = molecular target: T2, human FGFR3-IIIb ECD-human Fc chimeric …; assay: ELISA: blocking of FGF9 binding to captured FGFR3-IIIb-Fc
Description: as §1, §2

[5] = molecular target: T2, human FGFR3-IIIb ECD-human Fc chimeric …; assay: direct ELISA: FGFR ECD-human Fc chimeric protein coated on the plate, R3Mab titrated, detection with HRP anti-human Fab
Text: as §1
(§3) cDNAs encoding the extracellular domains (ECD) of human FGFR1-IIIb, IIIc, FGFR2-IIIb and IIIc, FGFR3-IIIb and IIIc, and FGFR4 were cloned into pRK-based vector to generate human FGFR-human Fc chimeric proteins. The recombinant proteins were produced by transiently transfecting Chinese hamster ovary (CHO) cells and purified via protein A affinity chromatography. To test binding of antibodies to human FGFRs, Maxisorp 96-well plates (Nunc) were coated overnight at 4° C. with 50 μl of 2 μg/ml of FGFR ECD-human Fc chimeric proteins. After blocking with phosphate-buffered saline (PBS)/3% BSA, FGFR3 antibody was added and incubated at RT for 2 hours. Specifically bound FGFR3 antibody was detected using an HRP-conjugated anti-human Fab and the TMB peroxidase colorigenic substrate (KPL, Gaithersburg, Md.).

[6] = molecular target: T3, human FGFR4 ECD-human Fc chimeric protein (human, UniProt P22455 22-369); assay: as above
T3 construct: extracellular domain; not shown: human Fc
Text: as §1, §3

FGFR3 on OPM2 cells = molecular target: T4, FGFR3 on OPM2 cells (human, UniProt P22607); assay: Scatchard analysis: radioiodinated (125I) R3Mab on OPM2 cells in suspension with unlabeled antibody, 2 h at room temperature; mean of two binding experiments
T4 construct: full length, on cells; also called FGFR3 K650E
Description: (§4) FIGS. 23A and 23B: Cell surface expression levels of FGFR3 in myeloma and bladder cancer cells. (FIG. 23A) Cell surface FGFR3 expression in myeloma cells and bladder cancer cells assessed by FACS analysis. Cells were stained with phycoerythin-conjugated mouse mAb against human FGFR3 (FAB766P, R&D Systems) or phycoerythin-conjugated isotype control mouse IgG1(BD Pharmingen). (FIG. 23B) Scatchard analysis of FGFR3 density in myeloma cells and bladder cancer cells. […] After incubation at RT for 2 hours, cells were pelleted by centrifugation and washed twice. Specifically bound ¹²⁵I was determined.

FGFR3 on KMS11 cells = molecular target: T5, FGFR3 on KMS11 cells (human, UniProt P22607); assay: Scatchard analysis: radioiodinated (125I) R3Mab on KMS11 cells in suspension with unlabeled antibody, 2 h at room temperature; mean of two binding experiments
T5 construct: full length, on cells; also called FGFR3 Y373C
Description: as §4

FGFR3 on RT112 cells = molecular target: T6, FGFR3 on RT112 cells (human, UniProt P22607-2); assay: Scatchard analysis: radioiodinated (125I) R3Mab on RT112 cells in suspension with unlabeled antibody, 2 h at room temperature; mean of two binding experiments
T6 construct: full length, on cells; also called WT FGFR3
Description: as §4

FGFR3 on UMUC-14 cells = molecular target: T7, FGFR3 on UMUC-14 cells (human, UniProt P22607-2); assay: Scatchard analysis: radioiodinated (125I) R3Mab on UMUC-14 cells in suspension with unlabeled antibody, 2 h at room temperature; mean of two binding experiments
T7 construct: full length, on cells; Same protein as r1, here on intact cells and not in lysates; also called FGFR3^S249C on cells
Description: as §4

Binder	Kd [1] [nM]	Kd [2] [nM]	koff [2] [s⁻¹]	kon [2] [M⁻¹ s⁻¹]	IC50 [3] [nM]	IC50 [4] [nM]	EC50 (read off the curve) [5] [nM]	binding result [6]	Kd (FGFR3 on OPM2 cells) [nM]	Kd (FGFR3 on KMS11 cells) [nM]	Kd (FGFR3 on RT112 cells) [nM]	Kd (FGFR3 on UMUC-14 cells) [nM]
anti-FGFR3 antibody clone 184.6.58 (antibody, V domains shown) VH: EVQLVESGGGLVQPGGSLRLSCAASGFTFTSTGISWVRQAPGKGLEWVGRIYPTNGSTNYADSVKGRFTISADTSKNTAYLQMNSLRAEDTAVYYCARTYGIYDLYVDYTEYVMDYWGQGTLVTVSS VL: DIQMTQSPSSLSASVGDRVTITCRASQDVDISLAWYQQKPGKAPKLLIYSASSLASGVPSRFSGSGSGTDFTLTISSLQPEDFATYYCQQGAGNPYTFGQGTKVEIK	0.19	–	–	–	–	–	–	–	–	–	–	–
anti-FGFR3 antibody clone 184.6.1N54S (antibody, V domains shown, also called R3Mab; R3 Mab) VH: EVQLVESGGGLVQPGGSLRLSCAASGFTFTSTGISWVRQAPGKGLEWVGRIYPTSGSTNYADSVKGRFTISADTSKNTAYLQMNSLRAEDTAVYYCARARTYGIYDLYVDYTEYVMDYWGQGTLV VL: DIQMTQSPSSLSASVGDRVTITCRASQDVDTSLAWYQQKPGKAPKLLIYSASFLYSGVPSRFSGSGSGTDFTLTISSLQPEDFATYYCQQSTGHPQTFGQGTKVEIKR	–	0.111	0.0002	1.8e+06	0.3	1.1	~0.3	no binding (tested: about 60 nM)	0.64	0.35	0.16	0.34
